The record followed here is a protein production outcome set (Wang et al. 2014).

A short description of this series: label from the status in PepcDB records.

As for “MSSASSEAQRLARLALLQVVDTAAEPFFDALAAAAQAIAGTPIALVSLVDERRQWWKANIGLPGVSETPRELAFCTYTIQGDAVMEVRDAPADPRFHDNALVTDAPGIRYYAGAPIVLPDGLRMGTVCVIDQRPRALEPAQLQALQQLAKVAAEGLEQRRVMLEREAANAQLQQRLRESEAFLERTGRVAGVGGWEVDVASGTLIWSDQTCRLHDVPPGYRPSLTEAIGFYPLEARAVITEAVDACVRDGTSWDLELPLTSATGRRLWVHSTGSVEHVDGRKRLIGAVQDVTDRHRAVDALAASERKFRKMFQYSLGLICTHDMHGRLVSINPAAARSLGRSVEQMEGRSLVEFVRPERHAALRGYLSRMVLDGQDSGVIELVAGDGSLRHWQYHNVLDVESDATVVLAHAQDITNQYRQEKQLLEWSFTDPLTNCYNRRFLDELDKRDPAVRWGCIVVDLDKFKLVNDTHGHQRGDEVLVQMAWFLNQPLRTQDRLVRLGGDEFLVLLHQASQTQLDALKRDYMGASEDAPIRFTLGTALRQDGEALAAVVDRADHSLYSLRRARRGTGTSDQR”, the protein production entry is on record as “failed”. To “MSSATGRWRESPPTAVKNEEDNGRCPRELRVQSEAVLAGRYRLEERLGRGGMGEVWRAFDPHLEREVAVKLILSGDNDGVLIRRFQREARISANIQHPNITAVHDFGHHEGQLFLVMELLRGRDLGAVLADHPQGMPLDLVVSVAVQAADALRAAHTHRVVHRDLKPGNLFLLDTGHVKVCDFGIAHIADATSQLTAVGTALGTPAFMPPEQWKGEEVDSRSDVYALGGVMHTMLTGRIPFTGPLPALLAQHLTQDPPPIREFRPDVPLELADLVARMMAKDPAARPDSHELGELIYRAAAPEASGSPAFFSPQIAPQALPTAPPTAAPVPPQPSHATGYAAPSQWMPAAPQPHPTAHPPAEGDPQTMFTLGLRHREQGDIAGAESWYRKAAEAGHLDSMFNLALLSRERGNLVEAESWYRRAAEVGDVDAMVNLGDLLKERGESAEAELWHRRAAEAGHIASMHTLGNLLYSKGDTAEAETWWRRAAEAGNIRAMGVLGNLLEQRGDTFGAEQWYRRAAEAGNLDAMVNLGVLLENRHDTFGAEQWYRRAADAGDIDAMVNLGNLLHGRGDMGSAQYWWQRAAQTGNTRALNHLNQMG” belongs “failed”; to “MSSATGSKIVVTGATGNVGTSVVRLLSEDPEVGTVLGLARRIPDWSPAKTEWAAVDLASEQSDLTSHFADADAVVHLAWAFQPTHDPATTWRTNVLGSIRVFEAVAAAGVPALVHASSVGAYSPGPKNHAVDESWPTHGWPDAAYCREKAYLERALDTFERDHPGIRVVRMRPAFLFKRESASEQRRIFGGRFLPGPAARPELLPFLPDVPGLRVQALHTDDAARAYRLAVRSADARGAFNLAAEPPVDAELLGELLGVRPVRLPRAAARSAIAAAWGMRLLPASPHLFDAVLRLPVMDCTRARVELGWGATRTATEVLEEFLRGLRQGAGADTEPMRGRKVG”, “failed”; to “MSSDAISLRAAGPGDLPGLLELYQVLNPSDPELTTQEAGAVFAAMLAQPGLTIFVATENGKPVATATLLIVPNLTRAARPYAFIENVVTLEARRGRGYGRTVVRHAIETAFGANCYKVMLLTGRHDPAVHAFYESCGFVQNKTGFQIRQD”, “not failed”.

Regarding “MSSDCLNVSYPATGCQKLFEVVDEHKLRVFYEKRMGQVVEADILGDEWKGYQLRIAGGNDKQGFPMKQGVLTHGRVRLLLKKGHSCYRPRRTGERKRKSVRGCIVDANMSVLALVVLKKGEKDIPGLTDTTIPRRLGPKRASKIRKLYNLSKEDDVRRFVVRRPLPAKDNKKATSKAPKIQRLITPVVLQRKHRRIALKKKRQIASKEASADYAKLLVQRKKESKAKREEAKRRRSASIRESKSSVSSDKK”, the protein production result is on record as “failed”. In the case of “MSSDKTLNVKATGIIALAVMCSRVLGLIREVLFNALFGSASMGIFLIAFRAPNLLRDLFAEGALSVSFITVFSKKIETEGEKSAWQLASKMLTLTSVFMSILCLFGIIFAKYLIFILAPGFSVKDAETTIFLTQLMFPFILLVSLAAIVMGMLNSKNVFGMPALASSFFNIGSILGGALCGWFIDPSFGERALIGLAIGTVIGGLLQLGVQFPSLRKVGFYFKPNFHWYDSGVRNTLILTIPAVIAASAVQINVLINSGFASYLGKEAVTWLNSAFRLMQFPLGVLGVAIATITLPVVSRLAATNNHSQFGSTLARAIRLAVFLTMPAAVGLWFFATPIISLIYEHGKFHASDSLQTAYALQFYALGLVAYSCIKVLSPAFYAIDKKWTPMIVSFATIILNIILNYFLIFKLSMGHRGLALSTTVSATVNFLVLYVLMTRLHNLQNRYLFNTILRCVLASAILGFMCQSIFAYGADFLYHPSFWIRAVSLAISISFAVLVYLSMCVILRVDEAKSIFMIIRHRLGFPIKFKSKQV”, the protein production entry was “failed”.

On to “MSSDVQKGDNLETPGARDLLLQTASNIMREGDVVDISLSELSLRSGLNSALVKYYFGNKAGLLKALLDRDMENIVKSVDALLAKDDMSPEAKLRRHISKCIDTYYDYPYLNRLLMRLVRDSDEAEAKRIADQYLLPLHRAYNRFIGEGVKAGVFRPINPQLFYFTVTGAADRFFSARLVLKHCFDQDTLTEQLRDSYREHTVDFIMAGILAH”, for which the protein production result is “not failed”. Regarding “MSSEKVMSESSNASTKEGQLPRSSGVSWSLIMGAAFLMATSAVGPGFLTQTTVFTQTLGASFAFVILVSIILDIGAQLNIWRVIVVSKKRAQDIANDLLPGLGYAIAGTVALGGLAFNIGNIGGAGMGMNVLFPSISPVAGASISAVIAVAIFMLKDAAKVMDRFTILMGAALIVMTLYVLFSTSPPIGEALYRSVWPEKLNVLAIITLVGGTVGGYITFAGAHRLIDAGVTGKEALPQVNRGSVSAISVASIVRVILFLAALGVISTGVTLDPSNPPASMFQHAAGNIGYKIFGLVLWAAAITSVIGAAYTSVSFLKTLHPMIDLHSRKFIIGFIVISTFIFCFIGKPVVLLIVAGALNGFILPVTLGIMLIAAKKAQIVGDYKHPVWMSVFGWLITAMMAAMSVYTLYMLLI”, the protein production entry is “failed”. To “MSSERIVELIKEIYLDFRKGNFKEALVKSEEAHSLDFDNIEILTALKSSVYWNGQVESLDRIGQDYEKAEFLIREWNNFAGRYLKKMGCNFLQGRNSIKYFVFQTCLYIYKNIYKMHPENLDLLIKIAKSYKGMGNYERAINVFLQILGDFKDNSDVVAELADSYALVDEIKEAKVLFREAFFINPQKIDIYSLESDMILRLIDLIKSDRNISDDLIKEWIPVYGSLNGVFNIKRELRPIELGQLKQSVYSLRNELKEKSYRSINESILLPRLINKYFWLIDHYVRIKEDRARIDEILLYIKEIDLGIYQQYVN” belongs “failed”; to “MSSERQLAGRIVVPGEPLPEEVEASPPYVIDYKGVKRATVVGLLREKGDGGGRAFVKLKEIYVPQAGDVVIGLIQSVGIMNWFVDINSPYVAVLSVQDFLGRPFNPAVDDMQSLLKVGDYIKAKVVAFDKTRSPLLTVQGEGLGRIVRGKIVEISPAKVPRVIGRKMSMLKTLEEKTECKIFVARNGRIHLECPNEDLEAIAVMAIKIIDEEAYTSGLTKRIIKFIEEERRIREV”, “not failed”.

“MSSFAELLQQGASQAWLYFPSAILLGALHGLEPGHSKTMMAAFIVAIRGTVKQAVLLGLASTLSHTAVVWLVAMAGMYLGQNLNAETTEPYFQLASAAIIITIALWMLWRTWRGEQMWRFEEGDDLQHDYHHHDEMQRIDTGHGRIELSIFEEGVPPRWRLNILTGHAWSAAEMSLLTTRPDGLAQQFRFVDRGDYLESVDEIPEPHEFTARLSLGHAGHSHDYDLEFHEHGHGHGHDHAELEGLELSLEGYQDAHERAHANDIRKRFSNRNVTTGQIILFGLTGGLIPCPAAITVLLLCLQVKEVALGAVLVLCFSIGLAITLVTVGAAAAIGARQASNRWPWLGAVARRAPYLSSLLIIGVGIYVGVHGWIGLNA”: the protein production entry is reported as “failed”. To “MSSFKGIFGFNRVELKDLLISSIAIAIVVVWPRGFPTFNIGFFLHFIAALLTVGIAFIFHELAHRTVARHFGAWSEFRAWYEGLALAIFLKIILGFTFIAPGAVYIHKDYLKTKENGLISVAGPLTNIVLAVLFMILPIPAIYYSGYYVDISSYGYFVNIFLAMFNLLPIYPFDGSKVMRWNFLVWAVLFIPLIVLYFFV” belongs “failed”; to “MSSGKDFFVHSHALCESENIGKDSRVWAFAHILPGARLGSECNVCDNVFIENDVIIGDRVTLKCGVQVWDGITIEDDVFIGPNATFTNDLFPRSKVYPQTFARTIIRKGASLGANCTILPGITIGINAMVGAGAVVTRSVPPNAIVVGNPAKIIGYVDAKPVNANSETRAEQKAPGVTATSVKNVTLHTMNEVADIRGSLSAGEFERSVPFKTERYFLVYDVPTAETRGEHAHRICHQFLVAVKGSVHVVADDGVNREEFILDKPNQGIHLPPMTWGIQYRYSQDAVLLVFASHYYDAGDYIRNYEEFKSLIANAELEHHHHHH”, “not failed”; to “MSSGNVFLLSIASSAGMNIRLVHRLIAASCAVVLCSTVGIPAGRAGDPFRSSNPQPISASTAAAFTAAFQQGNYPAAEQALQQALRQDSSDPLVFALAGSLAFAQQNRQAFADYARQTKSKAQAIAPQQPLRSQLYIAVGELMMAASTLLPQLTGDGGVPLAAVPQALQSLQTVYGSLRAAAQINPNDPELNLVQGFVDLIVATNLPLANPSGAIAKLEKASPRYLADRGIALGLRNLKRYPEAIQYVDRAIAAAPENPELRYLKAQILVEQSKATGDANLRRAAAAEFQKALAKSSQLPQPLVWQLFFEACNNQKTFDNRGQDCVSLRDQVTQAPGPWGPATLPPL”, “failed”. Consider “MSSIGYSRRFRLFRRGEVTVLEVMAGQKAYPDTLRYLLVPEGRPQPSGFVGYTVIRTPVKRIAVFSTTHIGFLDMLGRSDGIIGVSRPEFVNTPAVRSRIRSGAIKAIGMPFSPDVEALLNLEPDLVIAPALPAARKTDYQALVQAGIPVLVVAEWLEPSPLGRAEWIKLFGALVGKEKLARERFAAIESSYLKIAALSRNLPNRPTVLTGLPVKDAWYVPTGGSYVAAMLRDAGASYHWRDLPGTGSVPLTIEAVWPVALEAEYWLNTGTVSTLDELLAVDSRFGQMRSVRERRVWNNNRLVNAAGGNAYWESGVVRPDLILKDLVMILHPGLLRAHGIGEGELTFFQEVKLEHHHHHH”, for which the protein production result is listed as “not failed”.

For the sequence “MSSKGEGSSSTAEREVKKQVASVIPVTRKLVKTMAAKAIISALTPSGCGRHSDSTGDGKELKPFKKKEGSVIPKERELVKTKAAKAIFSLFRPSCDGKQSSQPSRDGDGDHDGKRVYPTRY”, the protein production entry is reported as “failed”. Turning to “MSSMGDQRGTRVYVGNLTDKVKKDDLEGEFTKYGKLNSVWIAFNPPGFAF”, the protein production entry is on record as “failed”. To “MSSNECFKCGRSGHWARECPTGGGRGRGMRSRGRGGFTSDRGFQFVSSSLPDICYRCGESGHLAKDCDLQEDACYNCGRGGHIAKDCKEPKREREQCCYNCGKPGHLARDCDHADEQKCYSCGEFGHIQKDCTKVKCYRCGETGHVAINCSKTSEVNCYRCGESGHLARECTIEATA” belongs “not failed”; to “MSSPATTITFFFFFTLSSFFYITSSLQNNNNNKHTATVNSLNIPSAAAEITLVNPKLPPRSLSLTSSKKFEGSSNLVHLRYHMGPVLSSSPINIYVIWYGQWSRPHKSLIRDFLNSISDAKAPSPSVSEWWRTASLYTDQTGSNVSRSVLIAGEYSDSKYSHGQHLTRLTIQEVIASAARSASFPVDHKNGMYLVLTSHDVTMQDFCRAVCGFHYFTFPSMVGYTMPYAWVGQSGKQCPEVCAYPFALPGYMGHGGPGELRPPNGETGVDGMVSVIGHELAEVVSNPLINAWYAGEDPTAPTEIGDLCEGLYGSGGGGGYIGQVMRDREGKTFNMNGKGGRKFLVQWIWNPNLKACSGPNSVD”, “failed”.
